From the RNAGym collection of RNA variant scans (doi:10.1073/pnas.2313332121) come the findings set out here.

Fewer inactive variants are shown than the library holds. A value given as a limit tells only on which side of the number the result lay.

First the molecules themselves.
B1: TPR 5TU (parent)
chain: GGAUCUUCUCGAUCUAACAAAAAAGACAAAUCUGCCACAAAGCUUGAGAGCAUCUUCGGAUGCAGAGGCGGCAGCCUUCGGUGGCGCGAUAGCGCCAACGUUCUCAACUAUGACACGCAAAACGCGUGCUCCGUUGAAUGGAGUUUAUCAUG

The variants in the data set derive from B1. Kind of data set: polymerase ribozyme fitness, log enrichment relative to wild type (log ratio); higher = more active; in vitro selection for triplet polymerase activity. The gist of the method: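 Fitness measures genotype enrichment against wild-type enrichment on a logarithmic scale, with inverse-variance-weighted averaging of replicates. The logarithm is base 2, and genotypes were kept only with ≥10 input reads and ≥1 read per output in Illumina sequencing. The sequenced libraries came from one triplicate in vitro selection round, including frozen incubation at −7 °C, of PCR-built, transcribed mutant libraries of each subunit of a heterodimeric triplet polymerase ribozyme.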
Consider U7G G42A U44A G68C A91U G117A U135A, for which the “polymerase ribozyme fitness (log ratio)” value is no more than -4.2. Consider C75A G86U, for which the “polymerase ribozyme fitness (log ratio)” value is no more than -4.2.

For the variant C95U A98G C105U, the “polymerase ribozyme fitness (log ratio)” value was found to be 0.768. In the case of U53A G58C C96U U135G, the “polymerase ribozyme fitness (log ratio)” value was -3.98. With G42A G50A C76U G84U G92A A107C C116G the figure was no more than -4.2. A12C C85U C116A A122G G143U: the “polymerase ribozyme fitness (log ratio)” value is no more than -4.2.

On to G11A A91G A138U, for which the “polymerase ribozyme fitness (log ratio)” value was no more than -4.2. Regarding A29G C131U, the “polymerase ribozyme fitness (log ratio)” value was no more than -4.2.

As to C10A G34U C57U C76U C95G C116G, the “polymerase ribozyme fitness (log ratio)” value is no more than -4.2.

U4A A60U G86A A107G A122C: the “polymerase ribozyme fitness (log ratio)” value is no more than -4.2. With G25C U31C C32G U55A C75G C76U C79A A115G A120C C129A the figure was no more than -4.2.

For the variant G42C A60G, the “polymerase ribozyme fitness (log ratio)” value is -4.05. C85A G92U C131G G152C: the “polymerase ribozyme fitness (log ratio)” value was no more than -4.2. Consider A3U G94A, for which the “polymerase ribozyme fitness (log ratio)” value is -1.21. With A49G G84A G152A the figure was -2.8; with G50C G94A C129U U135G, no more than -4.2; with A20C A24U C93U U130G A150G, no more than -4.2. Under C18U G65A stands -1.77; under C10G A41C A73U U134A, no more than -4.2; under G70C G88U A97C, no more than -4.2. With C76U A150C the figure was -3.79. As for A52G U56C C93A, the “polymerase ribozyme fitness (log ratio)” value is -2.44. As for A3U G84A, the “polymerase ribozyme fitness (log ratio)” value was -1.14. Under A20C A23U A29U G92A A110U U139G A142G U144G stands no more than -4.2; under C54A G59C G84A, -0.321. For A17G C75U C95U, the “polymerase ribozyme fitness (log ratio)” value is 0.0451. For A17U A28C C87A, the “polymerase ribozyme fitness (log ratio)” value is no more than -4.2. Turning to U56C C85A C131G, the “polymerase ribozyme fitness (log ratio)” value was -3.7. For the variant A41C A49C G81A A97C C103G G124U U134C, the “polymerase ribozyme fitness (log ratio)” value was no more than -4.2. Under A120G G128U stands -2.36; under A23U A26U C27U A41U C93U C95A, no more than -4.2. Take G59C C63U C87U A107U: the “polymerase ribozyme fitness (log ratio)” value was -3.81. With U13G A106G the figure was -1.5. With C118G A122C G141C the figure was -2.43; with A16U C54G A97C C116G G124U A137C, no more than -4.2.

A24U C149G: the “polymerase ribozyme fitness (log ratio)” value is -3.88. With A28C U78G C96G U148G the figure was no more than -4.2. With U82A the figure was -0.0631; with G25C G83U, -2.85. With G50A C93U the figure was -3.07. G48C C51U C85U C129A U145C: the “polymerase ribozyme fitness (log ratio)” value is no more than -4.2. With G74C U82C the figure was -4.05. Under C105U A142C stands -0.229. With A12G A23C A47C A60G C93U the figure was no more than -4.2; with A17G G143U, -2.24; with U139G U148A, -2.73.

Turning to A21G C38U, the “polymerase ribozyme fitness (log ratio)” value amounted to 0.63.

With C5G C87U, the “polymerase ribozyme fitness (log ratio)” value was -0.787. Take A17G A37U A47U C85U: the “polymerase ribozyme fitness (log ratio)” value is -1.62. For G34C G59A G112U A115U C125U, the “polymerase ribozyme fitness (log ratio)” value was no more than -4.2. On to U56C G81U G92U C108G, for which the “polymerase ribozyme fitness (log ratio)” value is no more than -4.2.

On to A19G G42A A66C C85U A106U U148A, for which the “polymerase ribozyme fitness (log ratio)” value is no more than -4.2. Take G50A C76U C93U A98C: the “polymerase ribozyme fitness (log ratio)” value is -3.32. With G62A U82C C95A U101C U148A the figure was no more than -4.2.

Take U9A C32A U33G A49U C51U U53A C54U G84U C103A C108G C118G C149U: the “polymerase ribozyme fitness (log ratio)” value was no more than -4.2. Under A37U A52G G83A G84A A115U stands no more than -4.2.

Turning to U82G C87U U146C, the “polymerase ribozyme fitness (log ratio)” value was -0.959. With A12U C38G G59U the figure was -0.492; with A20U G92A A121U G141C, -4.03; with A20U A52U A89C, -3.39. Under A28U U90G C99U G141U U151G stands no more than -4.2; under A17C U55A G59A A60G C96A G143U, -3.41. With U55G A60G C69U A91G U144A, the “polymerase ribozyme fitness (log ratio)” value is -2.3. With C57G A150G the figure was -1.23; with U55A G86U U145G, -1.41; with C5G A73U G124A, -1.49. Under A91U A113C stands no more than -4.2; under C51U A60G C85A, -3.39; under U6C C10G, -3.97. With A26U C51U A64U C125U the figure was no more than -4.2.

In the case of C116U A121U G124U, the “polymerase ribozyme fitness (log ratio)” value was -2.02.

G84A A150G: the “polymerase ribozyme fitness (log ratio)” value is -0.63. Under C99G A121C U151A stands no more than -4.2; under A19G C93A G140A, no more than -4.2. With G42A G84A, the “polymerase ribozyme fitness (log ratio)” value was -3.95. For the variant C14U C87U U101C C118G, the “polymerase ribozyme fitness (log ratio)” value is -3.29. Under A20G A21U A26U A29U A39C A91G G94U A97G C99A C131A A142G stands no more than -4.2. With C5U C8G A23U U45A G84C the figure was no more than -4.2. Take G11A A21U C51U U53A U55G C57U C96A A110C: the “polymerase ribozyme fitness (log ratio)” value is no more than -4.2.

On to G50C C54U C85U C125U, for which the “polymerase ribozyme fitness (log ratio)” value is -4.17. As to C32U C36U G68A G83U, the “polymerase ribozyme fitness (log ratio)” value is no more than -4.2. Under A22C A39C stands -2.49. Under C75U G86C A115U stands -2.41. Under C114U C131U stands -1.64.
